Assay results taken from publication PMC8752837, “Structural basis of BAK activation in mitochondrial apoptosis initiation” (Nature Communications, 2022).
Read-outs that look alike come from different tables or passages of the source.

How the values were obtained:
[1] = molecular target: T1, Human BAK-∆TM-His6 (human); assay: SPR; MEAS-BAK-His6 captured (~500 RU) on Ni2+-charged NTA HisCap chip, peptides injected; 20 °C; 20 mM HEPES pH 8.0, 200 mM NaCl, 1 mM TCEP, 0.01% Tween20; 1:1 interaction model
T1 sequence (Q16611 whole entry, looked up): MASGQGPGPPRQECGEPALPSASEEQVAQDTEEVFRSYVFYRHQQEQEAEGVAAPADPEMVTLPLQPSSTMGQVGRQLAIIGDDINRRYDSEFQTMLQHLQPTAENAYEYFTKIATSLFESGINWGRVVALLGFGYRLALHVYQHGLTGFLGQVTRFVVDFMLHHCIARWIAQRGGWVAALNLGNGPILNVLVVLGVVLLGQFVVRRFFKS

[2] = molecular target: tevBAK (residues 22–186) (human) (UniProt Q16611); assay: ITC; 250 or 500 µM BID BH3 peptide injected into 20 or 50 µM tevBAK; 25 °C; 20 mM HEPES, 100 mM NaCl, 1 mM TCEP; single site binding model
[3] = molecular target: T2, MEAS-BAK-His6 (C-terminus truncated recombinant human BAK containing C-terminal 6x histidine tag) (human) (UniProt Q16611); assay: SPR; MEAS-BAK-His6 captured (~500 RU) on Ni-NTA HisCap chip, peptides injected; 20 °C; 20 mM HEPES pH 8.0, 200 mM NaCl, 1 mM TCEP, 0.01% Tween20; 1:1 interaction model
T2 sequence: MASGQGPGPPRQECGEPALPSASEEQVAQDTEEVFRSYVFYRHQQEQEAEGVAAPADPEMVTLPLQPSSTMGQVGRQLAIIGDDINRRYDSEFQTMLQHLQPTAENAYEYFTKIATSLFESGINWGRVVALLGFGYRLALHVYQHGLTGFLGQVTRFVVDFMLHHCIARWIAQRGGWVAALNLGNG

[4] = molecular target: T2, MEAS-BAK-His6 (C-terminus truncated recombinant human BAK containing C-terminal 6x histidine tag) (human); assay: as above; remark: listed apart in the source
[5] = molecular target: T2, MEAS-BAK-His6 (C-terminus truncated recombinant human BAK containing C-terminal 6x histidine tag) (human)
[6] = molecular target: GST-BAK (human); assay: fluorescence polarisation; competitive: displacement of 10 nM BID BH3 SAHB-F from 1 µM GST-BAK by peptides at 500-0.2 µM; 50 mM Tris-HCl pH 7.5, 50 mM KCl, 0.1 mg/mL BSA, 2 mM DTT, 0.005% Tween-20; 60 min at RT

Kd [4] [µM] | koff [4] [s⁻¹] | kon [4] [M⁻¹ s⁻¹] | IC50 [6] [µM] | Substance | also measured
– | – | – | – | M(3)W(5) BID-like BH3 peptide | fold higher affinity than WT BID BH3 [1]: 30 fold; fold higher affinity than WT BID BH3 [2]: 30 fold
0.336 | 0.0241 | 71900 | – | W(3)W(5) BID BH3 peptide | kon [3]: 79100 M⁻¹ s⁻¹
62.3 | 0.261 | 4190 | – | WT BID BH3 peptide | Supplementary Table 1: liposome permeabilization EC50 (peptide dose against AUC, 50 nM BAK; data of Supplementary Figure 7c) [5]: 0.059 µM
– | – | – | 6.2 | Y(3) BID BH3 peptide | –
– | – | – | 6.9 | Y(4) BID BH3 peptide | –
